Data on 6 molecules can be found in patent US20240034792A1 (HARBOUR BIOMED SHANGHAI, published 2024).

The target in assay [1] is T1, Human PD-1 expressed on CHO-K1 cells (CHO-K1/hPD-1) (human, UniProt Q15116 25-288).
T1 construct: whole, on cells; also called CHO-K1 cells overexpressing human PD-1
Briefly: FACS blocking of biotin-labeled human PD-L1 binding to CHO-K1-hPD-1 cells. On the procedure: (§1) Briefly, the CHO-K1-hPD-1 cells were digested and resuspended in an F-12K complete medium, and the cell density was adjusted to 1×10⁶ cells/mL. The cells were seeded in a 96-well V-bottom plate (Corning, Cat#3894) at 100 μL/well, followed by the addition of the test antigen-binding proteins with concentrations 2-fold of final concentrations obtained by 3-fold or 5-fold gradient dilution were each added at 100 μL/well. The mixtures were well mixed. The maximum final concentration of the antigen-binding proteins was 100 nM or 300 nM. A total of 8 concentrations were set. hIgG was used as a control. The cells were incubated at 4° C. for 1 h away from light. […] The cells were incubated at 4° C. away from light for 30 min. The cells in each well were rinsed twice with 100 μL of pre-cooled PBS, and centrifuged at 500 g at 4° C. for 5 min, and then the supernatant was discarded. A fluorescent secondary antibody (PE Streptavidin, BD, Cat# 554061, 1:200) was added at 100 μL/well, and the cells were incubated at 4° C. away from light for 30 min. The cells in each well were rinsed twice with 200 μL of pre-cooled PBS, and centrifuged at 500 g at 4° C. for 5 min, and then the supernatant was discarded. Finally, the cells in each well were resuspended in 200 μL of pre-cooled PBS, the fluorescence signal values were read using a BD FACS CANTOII, and the IC₅₀ values were calculated.

Assay [2] deals with T2, Human PD-1-His protein (ACROBiosystems, # PD1-H5221) (human, UniProt Q15116 25-167).
T2 construct: Bought reagent, coated on the ELISA plate; also called human PD-1 protein; human PD-1 antigen; not shown: His tag
T2 sequence (Q15116 25-167 limits assumed): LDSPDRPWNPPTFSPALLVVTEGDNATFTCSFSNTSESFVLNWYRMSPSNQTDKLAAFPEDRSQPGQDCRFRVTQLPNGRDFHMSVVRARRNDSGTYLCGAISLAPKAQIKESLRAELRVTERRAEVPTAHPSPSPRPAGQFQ
Briefly: ELISA, plate-coated human PD-1-His. On the procedure: Human PD-1-His protein (ACROBiosystems, # PD1-H5221) was diluted to 2 μg/mL with PBS, added to a 96-well plate (Corning, cat#9018) at 100 μL/well, and incubated at 4° C. overnight. After the liquid was discarded, the plate was washed 3 times with PBST buffer (pH 7.4, containing 0.05% Tween-20), and 250 μL of 2% BSA blocking buffer was added. The plate was incubated at 37° C. for 1 h. The blocking buffer was discarded, and the plate was washed 3 times with PBST buffer (pH 7.4, containing 0.05% Tween-20). The test antigen-binding protein was 5-fold diluted in sequence at an initial concentration of 100 nM for a total of 8-10 concentration gradients, and added at 100 μL/well. The plate was incubated at 37° C. for 1 h. An isotype antibody was taken as a control. After the plate was washed 3 times with PBST buffer (pH 7.4, containing 0.05% Tween-20), a 4000-fold diluted goat anti-human HRP secondary antibody (Invitrogen, #A18805) was added. The plate was incubated away from light at 37° C. for 1 h. After the plate was washed 3 times with PBST buffer (pH 7.4, containing 0.05% Tween-20), TMB (Biopanda, # TMB-S-003) was added at 100 μL/well. The plate was left away from light at room temperature for about 5 min. The reactions were terminated by adding 50 μL of stop buffer (BBI life sciences, #E661006-0200) to each well, and the absorbance values at 450 nm (OD450) were measured using a microplate reader (PerkinElemer, #Enspire). The half maximal effective concentration (EC₅₀) was calculated from the measurement results.

Assay [3] concerns the target T1, Human PD-1 expressed on CHO-K1 cells …. Description: FACS blocking of biotin-labeled human PD-L2 binding to CHO-K1-hPD-1 cells. On the procedure:
as §1

Assay [4] deals with T3, Cynomolgus monkey PD-1 expressed on CHO-K1 cells (CHO-K1/cyno PD-1) (cynomolgus monkey, UniProt B0LAJ3 25-288).
T3 construct: also called CHO-K1 cells overexpressing cynomolgus monkey PD-1
T3 sequence (B0LAJ3 entry or part of it limits assumed): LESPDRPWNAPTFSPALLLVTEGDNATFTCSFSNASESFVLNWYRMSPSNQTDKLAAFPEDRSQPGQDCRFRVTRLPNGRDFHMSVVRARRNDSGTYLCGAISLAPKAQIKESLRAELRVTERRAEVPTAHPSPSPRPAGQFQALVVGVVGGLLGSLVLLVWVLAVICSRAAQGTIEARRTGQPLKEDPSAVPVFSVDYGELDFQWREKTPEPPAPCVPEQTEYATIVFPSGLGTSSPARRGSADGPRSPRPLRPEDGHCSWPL
Briefly: FACS, CHO-K1/cyno PD-1 cells. On the procedure: (§2) In order to investigate the in vitro binding activity of the PD-1 antigen-binding proteins to human/cynomolgus monkey PD-1, the binding assay at the cellular level was performed using a CHO-K1 cell strain overexpressing human or cynomolgus monkey PD-1 (CHO-K1/hPD-1 or CHO-K1/cyno PD-1, from GenScript). Briefly, the CHO-K1-hPD-1 cells were digested and resuspended in an F-12K complete medium, and the cell density was adjusted to 1×10⁶ cells/mL. The cells were seeded in a 96-well V-bottom plate (Corning, Cat#3894) at 100 μL/well, followed by the addition of the test antigen-binding proteins with concentrations 2-fold of final concentrations obtained by 5-fold gradient dilution were each added at 100 μL/well. The mixtures were well mixed. The maximum final concentration of the antigen-binding proteins was 100 nM or 300 nM. A total of 8-11 concentrations were set. hIgG was used as a control. The cells were incubated at 4° C. for 1 h away from light. Thereafter, the cells in each well were rinsed twice with 100 μL of pre-cooled PBS, and centrifuged at 500 g at 4° C. for 5 min, and then the supernatant was discarded. Then 100 μL of a fluorescent secondary antibody (goat anti-human IgG (H+L) secondary antibody, Alexa Fluor® 488 conjugate, Invitrogen, Cat #A11013, 1:1000) was added to each well. The plate was incubated away from light at 4° C. for 30 min. The cells in each well were rinsed twice with 200 μL of pre-cooled PBS, and centrifuged at 500 g at 4° C. for 5 min, and then the supernatant was discarded. Finally, the cells in each well were resuspended in 200 μL of pre-cooled PBS, and the fluorescence signal values were read using a BD FACS CANTOII.
(In general: In flow cytometry, cells or beads pass a laser one at a time.)

In assay [5] the target is T1, Human PD-1 expressed on CHO-K1 cells …. Description: FACS, CHO-K1/hPD-1 cells. How it is done: as §2

T1 sequence (Q15116 25-288): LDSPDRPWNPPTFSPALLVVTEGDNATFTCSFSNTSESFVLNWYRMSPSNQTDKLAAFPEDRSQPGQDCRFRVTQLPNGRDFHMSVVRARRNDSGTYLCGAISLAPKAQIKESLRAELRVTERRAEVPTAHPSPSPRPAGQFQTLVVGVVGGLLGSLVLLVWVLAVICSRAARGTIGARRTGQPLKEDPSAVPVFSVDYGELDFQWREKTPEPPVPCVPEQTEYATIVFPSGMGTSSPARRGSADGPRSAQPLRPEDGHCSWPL

B1: PR000679 (antibody, human IgG4 S228P, kappa, V domains shown)
VH: QVQLVQSGTEVKKPGSSVKVSCKASGGTFSSYAISWVRQAPGQGLEWMGGIIPIFDTVSSAQKFQGRVTITADKSTSTAYMELFSLRSEDTAVYYCARSPPYSSNWYQYFQHWGQGTLVTVSS
VL: DIQMTQSPSTLSASVGDRVTITCRASQTISIWLAWYQQKPGKAPKLLIYKASSLESGVPSRFSGSGSGTEFTLTISSLQPDDFATYYCQQFNSYWTFGQGTKVEIKR
notes: Fully human recombinant H2L2 antibody, human IgG4, kappa light chain; also called 4004_6C11C6
As to B1, in assay [1], the IC50 (commonly the concentration that gives 50% inhibition) was 0.437 nM and the “Maximum inhibition rate (%)” value came out at 40.2%. For the same molecule, in assay [2], a half-maximal effect (EC50) was put at 0.102 nM and the “OD Maximum” value was determined as 3.31. Besides, in assay [3], the IC50 was found to be 3.38 nM and the “Maximum inhibition rate (%)” value came out at 80.1%. In addition, in assay [4], a half-maximal effect (EC50) was put at 1.58 nM and the “MFI Maximum” value was found to be 24800.

B2: PR000674 (antibody, human IgG4 S228P, kappa, V domains shown)
VH: QVQLVESGGGVVQPGKSLRLSCTVSGLTFSDNGMHWVRQAPGRGLEWMSVIWYDGSKKYYADSVKGRFTISRDNSKNTLYLQMNNMRVEDTAVYYCATNSDYWGQGTLVTVSS
VL: EIVLTQSPATLSLSPGERATLSCRASQSVSSYLAWYQQKPGQAPRLLIYDTSKRATGIPARFSGSGSGTDFTLTISSLEPEDFAVYYCQQHNNWIFTFGPGTKVDIKR
notes: Fully human recombinant H2L2 antibody, human IgG4, kappa light chain; also called 4004_12H9C1
Turning to B2, in assay [1], the IC50 amounted to 0.769 nM and the “Maximum inhibition rate (%)” value came out at 66.7%. In addition, in assay [2], the response was half-maximal at 0.074 nM (EC50) and the “OD Maximum” value stood at 3.24. Also, in assay [5], the response was half-maximal at 1.94 nM (EC50) and the “MFI Maximum” value amounted to 2.35e+06. In assay [3], the IC50 was 1.83 nM and the “Maximum inhibition rate (%)” value was 92.7%. In assay [4], the EC50 (in general, the concentration that produces a half-maximal response) was found to be 2.35 nM and the “MFI Maximum” value was determined as 41200.

B3: PR000673 (antibody, human IgG4 S228P, kappa, V domains shown)
VH: QVQLVESGGGVVQPGRSLRLSCAASGFIFSNYGMHWVRQAPGKGLEWVAVIWYDGSKKYYGDSVKGRFTISRDNSKNTLYLQMNSLRDEDTAVYFCARNDDYWGQGTLVTVSS
VL: EIVLTQSPATLSFSPGERATLSCRASQSVSSDLAWYQQKPGQAPSLLIYDASNRATGIPARFSGSGSGTDFTLTISSLEPEDFAVYYCHQRNNWPLTFGGGTKVEIKR
notes: Fully human recombinant H2L2 antibody, human IgG4, kappa light chain; also called 4004_10H9A12
As for B3, in assay [1], the IC50 amounted to 0.402 nM and the “Maximum inhibition rate (%)” value turned out to be 45.6%. Moreover, in assay [2], the EC50 stood at 0.066 nM and the “OD Maximum” value worked out at 3.09. Besides, in assay [5], the EC50 amounted to 4.76 nM and the “MFI Maximum” value worked out at 1.57e+06. In assay [3], the IC50 came to 1.55 nM and the “Maximum inhibition rate (%)” value was 90.3%. Also, in assay [4], the EC50 came out at 2.04 nM and the “MFI Maximum” value stood at 38200.

B4: PR000676 (antibody, human IgG4 S228P, kappa, V domains shown)
VH: QIQLVESGGGVVQPGRSLRLSCAASGFTLSSYGMHWVRQAPGKGLEWVAVILSDGSNKYYADSVKGRFTISRDNSKNTLYLQMNSLRAEDTAVYYCADLGGDVWGQGTTVTVSS
VL: EIVLTQSPATLSLSPGERATLSCRASQSVSSYLAWYQQKPGQAPRLLIYDASTRATGIPARFSGSGSGTDFTLTISSLEPEDFAVYYCQQRSNWPLTFGGGTKVEIKR
notes: Fully human recombinant H2L2 antibody, human IgG4, kappa light chain; also called 4004_1A7A1
Consider B4, for which, in assay [1], the IC50 stood at 25.6 nM and the “Maximum inhibition rate (%)” value came to 76%. Also, in assay [2], it took 0.121 nM to reach a half-maximal effect (EC50) and the “OD Maximum” value is 3.32. Moreover, in assay [5], the response was half-maximal at 10.2 nM (EC50) and the “MFI Maximum” value was determined as 2.16e+06. Also, in assay [4], the EC50 was 8.34 nM and the “MFI Maximum” value was 39000.

B5: PR000675 (antibody, human IgG4 S228P, kappa, V domains shown)
VH: EVQLLESGGGLVQPGGSLRLSCVDSGFTFSSYAMTWVRQAPGKGLEWVSGISGSGYSTYYADSVKGRFTISRDNSKKTLYLQMNSLRAEDTAVYYCAELSLDYWGQGTLVTVSS
VL: EIVLTQSPATLSLSPGERATLSCRASQSVSRYLAWYQQKPGQAPRLLMHDAANRATGLPARFNGSGSGTDFTLTISSLEPEDFAVYYCQQRNNWPLTFGGGTKVEIKR
notes: Fully human recombinant H2L2 antibody, human IgG4, kappa light chain; also called 4004_19G8F2
In the case of B5, in assay [1], the IC50 turned out to be 12.4 nM and the “Maximum inhibition rate (%)” value is 72%. Moreover, in assay [2], a half-maximal effect (EC50) was put at 0.113 nM and the “OD Maximum” value worked out at 3.31. Further, in assay [5], the EC50 worked out at 7.91 nM and the “MFI Maximum” value was determined as 2.29e+06. In addition, in assay [3], the IC50 was 19.7 nM and the “Maximum inhibition rate (%)” value worked out at 59.9%. In addition, in assay [4], the EC50 came out at 6.91 nM and the “MFI Maximum” value stood at 36800.

B6: PR000677 (antibody, human IgG4 S228P, kappa, V domains shown)
VH: QVQLQQSGPGLVKPSQTLSLTCAISGDSVSSNSAAWNWIRQSPSRGLEWLGRTYYRSKWYSDYGISVNSRITVNPDTSKNLFSLQLNPVTPEDTAVYYCTRETHYYGSGSYLDYWSQGTLVTVSS
VL: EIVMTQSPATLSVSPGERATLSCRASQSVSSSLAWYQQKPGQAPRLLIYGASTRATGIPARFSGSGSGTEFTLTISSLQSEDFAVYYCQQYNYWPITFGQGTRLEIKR
notes: Fully human recombinant H2L2 antibody, human IgG4, kappa light chain; also called 4004_33B9E4
Turning to B6, in assay [1], the IC50 was found to be 3.4 nM and the “Maximum inhibition rate (%)” value was determined as 31.2%. Further, in assay [2], the EC50 amounted to 0.078 nM and the “OD Maximum” value is 3.27. For the same molecule, in assay [5], a half-maximal effect (EC50) was put at 2.1 nM and the “MFI Maximum” value worked out at 1.87e+06. Besides, in assay [3], the IC50 is 4.52 nM and the “Maximum inhibition rate (%)” value amounted to 14%. In assay [4], the EC50 was 2.86 nM and the “MFI Maximum” value turned out to be 34500.
